# Laboratory results taken from the DeepSol protein solubility set.
# Test: soluble on expression in E. coli; label from the status in PepcDB or PDB records
row,Sequence,soluble on expression in E. coli
1,MLKELSILTGGDGVGFQSAPEQQSLQPAELKPVNVSINSIDELMLFFESLNYTPENFHGGNKSVPRITFDAVGEGWRSVSDQLPVKQKKMVFFRLMTPLVLLANEKVLQERQQVMSAPLDDAELIALAVKYKVISNPTQPLLASHRQALLERVDILPPSLVLAQAAKESGWGTSRFTLEGNALFGQWDFNGNGMEPKQKRQGMGRYGLARFETPLASVEGYLLNLNTHSAYYKMRQLRAQSRHANQMITGTALAGTLDRYSERGHAYVEMIRKMIRTNKLYLADEAYLNDDMPLHLLTRTN,soluble
2,MLKFENVTKSFKDGNRNIEAVKDTNFEINKGDIIALVGPSGSGKSTFLTMAGALQTPTSGHILINNQDITTMKQKALAKVRMSEIGFILQATNLVPFLTVKQQFTLLKKKNKNVMSNEDYQQLMSQLGLTSLLNKLPSEISGGQKQRVAIAKALYTNPSIILADEPTAALDTENAIEVIKILRDQAKQRKKACIIVTHDERLKAYCDRSYHMKDGVLNLENETVE,not soluble
3,MLKGKYTKIEKVNGVEREYLITDKYGITIGRIFIVDLNKDNRFCMFRMKIYKQGKSINTYIKEILSVFMEFLFKSNDINKVNIIVDEEVSTQPFVELGFAFEGIINKSIIEKNVLKDEFLFGMDYKNYNSDRINVFKLYGKSITLKVLTPEDAENMLQYYIKNKEHLKPFEPEREESFYTFEAQKQMLIENYKQFINGEGTNFGIYKDAKLIGKIQISGTIYGVFKSAIIGYSIDKDYQGKGYMKDALRVAEAYAFNVMNLHRIEASALVDNLRSQNVLIGCGFEKLGINKNYLFINGRWQDHITFYKTNNN,not soluble
4,MLKIGVITMALLSFLNAGWLGNLFDSTPTPYYKMPIDLSKAGNVTETDIRIDEKYSVYVELYYDYRKQKISGDRYGEIIDKYFGRHKLFPIFPIKLTVLKYEKTGTTMVVDKIYYTNSLGRTYSSREIDEFKLQEGSKYHIKVETVEDYPELAELNVEVVIGYIKAK,not soluble
5,MLKLYLPCCRNNSTFAIRFSYASIAVDLILKIRQYMKRLHWILLLMILLIPTESISAKKKTEKSDREIWCDVMYRMAAPVLSNMSEGLLKQNMLVELSPTWDGRNQNVTYMECFGRLMAGLAPWLSLPDDETPEGLQRKQLREWALKSYANAVDPASPDYLLWRQENQTLVDAAFLAESFLRSYDALWMPLDSITKQRYIAEFTDLRRVDPSYSNWLLFSATVESFLRKAGAPSDTYRISSSLRKIEEWYVGDGWYSDGPRFAFDYYNSFVIHPMYIEALEIITEAGKREKIGNMPGCNFHEAIRRAQRFGVILERLISPEGTLPVFGRSITYRTGSLQTLALLAWRNWLPEELSNGQVRAAMTAVIQRMFGDGRNFNTAGFLTLGFNGSQPGISDYYTNNGSLYMASLAFLPLGLSADDPFWTDASQSWTSKKAWEGEEFPKDHSYHKELEHHHHHH,not soluble
6,MLKMKNNGGGCLAYISDCSVYLPVWKLKRDEISKETGMPSMGGERAVAHWDEDSITMAVEAARKFDGAFDAVIFASSSPPFRIKQCASFIASALDLPDSTFTMDITDTMRAATDALITANEFVDSGRFSRVLVVAGDKIPTKPGTLYEQLYGDAAAAVVVEKEGGAKILGYSTSTKPLPGSWMLADDDTVRDYDMRVDARYGYAASVQKAAMPLFAKLGLSPADIDRIVASAPDPKSYQGLLKAVGARPEEFYFDSVGIAGSAHPLLLLATQLEREGRILLGGYGEGADVIAVEIEQAMDSNMGRMLESRKEISYGDYLFNRGFVGVRDAPDRPSLTKFWRDEKSIIRFYGMKCKSCGTVSYPISRCCIECGAKDNYEEVRLGERGKIYTFTIDYLVMPGNYAGDGVHPHFIAVVDLDGGGRVLFELTDTLRDFSGVECDAEVERTFRLLFEKNRFRYYGWKARLPRLEHHHHHH,soluble
7,MLKPETIHISGPAGILETIHIPSEQVPARGVAVINHPNPLQGGTNTNKVIQTAAKALSKLGFHCYLPNLRGVGGSGGTHDYGRGETQDCLAVIDYARAQHPEAPEFALSGFSFGGYVATFAAQARTPDLLLLIGAAVCHYTDRPEPSAVPNVAKTLMIHGAEDEVVEIGKALKWAEPQDLPVITIAGSTHFFHGKLIVLRDTILRFAPVCLNG,not soluble
8,MLKTPLYESHMAANAKMVDFSGWSMPINYGSQIQEHNNVREDCGIFDVSHMLAVDIQGSEAEKFLRYLLANDVAKLQENKAQYGCMLNHDAGIVDDLITYKVTDEHFRIVVNAGNRESDVAWFNQNAQNFDVAITPQTDLAIVAVQGPKAVAVIKRVVTKEIATEIEALLPFSFKFFSKWMVARTGYTGEDGFEVILPATQVKKFWDSLLENGAQPAGLGARDTLRLEAGMHLYGADMDTSTTPLERGLGWSVDLSDEHRDFIGKKAYFAKKAQGVDTKWVGVVLKTKGVLRAGQEIDFDNGEKGYITSGSFSPTLKVAIGLAYVPKQADNPVVNIRGKELEVELVKPKFVKNGKSLI,not soluble
9,MLLALKGIRKVYRMGEVAFSALKGVDLEVEEGEMLAIMGPSGSGKSTLLHILGLLDRPTEGEYVLMDRPTSRLAEDERAFLRNRFLGFVFQAFFLLPRLSALENVEVPLAYAGVPPGTRRRRALELLERVGLLEKANNLPNQLSGGQRQRVAIARALALNPPLLLADEPTGALDTRTGEEILALFQELNREGTTVILVTHEPHVAEKTNRIVRVLDGEIVADERRHHG,soluble
10,MLLNEIPWTIPLTVRLSNGLTHTFASVYEALDFLENEWPLRKGERYERAVRTCRRALNRMTPAAVAREAFIAACLEAGMPLVMAPPAREPQGDTVKAAHTA,not soluble
11,MLLREINRYCKEKATGKRIYAVPKLWIPGFFKKFDEKSGRCFVDPYELGAEITDWILNQSREWDYSQPLSFLKGEKTPDWIKRSVVYGSLPRTTAAYNHKGSGYYEENDVLGFREAGTFFKMMLLLPFVKSLGADAIYLLPVSRMSDLFKKGDAPSPYSVKNPMELDERYHDPLLEPFKVDEEFKAFVEACHILGIRVILDFIPRTAARDSDLIREHPDWFYWIKVEELADYTPPRAEELPFKVPDEDELEIIYNKENVKRHLKKFTLPPNLIDPQKWEKIKREEGNILELIVKEFGIITPPGFSDLINDPQPTWDDVTFLRLYLDHPEASKRFLDPNQPPYVLYDVIKASKFPGKEPNRELWEYLAGVIPHYQKKYGIDGARLDMGHALPKELLDLIIKNVKEYDPAFVMIAEELDMEKDKASKEAGYDVILGSSWYFAGRVEEIGKLPDIAEELVLPFLASVETPDTPRIATRKYASKMKKLAPFVTYFLPNSIPYVNTGQEIGEKQPMNLGLDTDPNLRKVLSPTDEFFGKLAFFDHYVLHWDSPDRGVLNFIKKLIKVRHEFLDFVLNGKFENLTTKDLVMYSYEKNGQKIVIAANVGKEPKEITGGRVWNGKWSDEEKVVLKPLEFALVVQE,soluble
12,MLMFDPVPVKQEAMDPVSVSYPSNYMESMKPNKYGVIYSTPLPEKFFQTPEGLSHGIQMEPVDLTVNKRSSPPSAGNSPSSLKFRSSHRRASPGLSMPSSSPPIKKYSPPSPGVQHFGVPLSMPPVMAAALSRHGIRSPGILPVIQPVVVQPVPFMYTSHLQQPLMVSLSEEMENSSSSMQVPVIESYEKPISQKKIKIEPGIEPQRTDYYPEEMSPPLMNSVSPPQALLQE,soluble
13,MLNIIRAGIYTSVQDSGRHGFRQSGLSHCGALDKPAFQTANLLVGNDANAPALEITLGQLVVEFENETWFALTGAGCEAQLDDQPVWTGWRLPVKAGQRLTLHRPLHGMRSYLAVAGGIAVPEVMGSYSTDLKSGIGGLEGRLLKDGDRLATGKPSRQFSGPQGVKQLLWGNRIRALPGPEYREFDRASQEAFWRSPWQLSPQSNRMGYRLQGQSLTRTTDRELLSHGLLPGVVQVPYNGQPIVLMNDAQTTGGYPRIACIIEADMYHLAQIPLGQPIHFVQCSLEEALNARRERQRYLEQLTWRLQHEHLEHHHHHH,not soluble
14,MLNKLSLLLKDAGISLTDHQKNQLIAYVNMLHKWNKAYNLTSVRDPNEMLVRHILDSIVVAPYLQGERFIDVGTGPGLPGIPLSIVRPEAHFTLLDSLGKRVRFLRQVQHELKLENIEPVQSRVEEFPSEPPFDGVISRAFASLNDMVSWCHHLPGEQGRFYALKGQMPEDEIALLPEEYQVESVVKLQVPALDGERHLVVIKANKILEHHHHHH,not soluble
15,MLNRIIEHMNAHHVEDMKGLLKKFGQVHHAENVAFKSVDSQGIVIGYNNNQTLRIEFNHEVKDPKDYKNATIELCQSVEKTHDLKGVEEEVKAFKEGFDSVCLATLHPNGHVVCSYAPLMSDGKQYYIYVSEVAEHFAGLKNNPHNVEVMFLEDESKAKSAILRKRLRYKTNTRFIERGAEFDKAFDSFIEKTGGAGGIKTIRAMQDFHLIALDFKEGRFVKGFGQAYDILGDKIAYVGDKGNPHNFAHKKLEHHHHHH,soluble
16,MLNTHSCIFHRGVNGSEPLLPVVNGVNICGNPRIISCCLLPLVNPCKPMSTGFDFVAIKKSRTFTAIEIRHKNMRKMAEQQIRCAKC,not soluble
17,MLPHTGLFLLGKVALQMRIRRRLKQGVIMAKTNNKPETAETAAPSFEDIKAELDAVQAELAAARNDVEMLTTALEKAEDDKKALSAELAELKVQHTQRAADALADSRDVMLVSTGADGKEFWRGGLLFDGGWREVKRAEVGEAVWKAICAEPMLQRKAVE,not soluble
18,MLPQLKAQFKEREPDVREYNADILVVGGGLGGVAAALGALRNGRSVILTEAFEWIGGQLTSQAVPPDEHSWVEQFGITASYRALRTGVRQYYRDHYPLTDAARADLTLNPGDGNVSRLCHEPRVSLAVMEAMLAPFAAGGKLTILKPYEPIAADVEGDTVRAVTLRHCNTSDLVSCSARYIIDATELGDLLPLTATDYVTGFEAQSETGEPSAPAEAQPHNQQAVSICFAVDQVDGNHVIDKPARYDHWRQVAPEFWGGPLLSWDSPNPRTLERSRRFFDPNPVDNATRDVADQRHSAGDMSLWIFRRIAARHTFRPGAYASDICLVNWPMIDYFEAPIIDVTPEQYAERLADAASLSYSMFYWMQTEAPRPDGGQGFPGLRLRGDITGTEHGLAMAPYIRESRRIRALTTVVEQDLSLAVRGDRGAVHYPDSIGIGMYRIDLHPSTGGDNYIDVGACPFEIPLGALISRHKTNLLAASKNIGTTHITNGCYRLHPVEWNIGEVAGMLAAYCLDKGETPHGVHADEKRLAEFHTHIERQGVERHWPDIRGYLEHHHHHH,not soluble
19,MLPSKEELLALLSKECELYASIPDSEQQKKRNKKHFINGLMTACRVVGISFEELNTIIEQMPKKPIFKDLDEQLSVPTYVRNRVDIKL,not soluble
20,MLQGHRTWVFENKPVIISTGVVGGPFEAKGNIPEDFDILHEDLWLGQDSYEKAHKILFEEACSRATEKAELRKDDIQFVLAGDLINQITPTSFACRTLGTPYLGLFGACSTSMEGLALGASIVNAKGAKYLLTGASSHNTAVEKQFRYPTEYGGQKPPTAQWTVTGAGAAILSDTGHGPRVTSATIGRVIDMGLTDPFNMGGAMAPAAVDTIEAHLRERQIDASYYDLIVTGDLGHVGREIAYDLLHKHGTKVTSEQFQDCGIIIYREGQPVIAGASGPGCSATVVYGHLLNRMKRGEFKKILVVATGALLSPLTFQQEETIPCIAHAVSIEFGGATQLEHHHHHH,soluble
21,MLQRSVFFLSDRTGITAETLGHSLLTQFDGIEWKKHYASFLDSAAKAQAVIEQINTIAEQEGQPALVFSTLLDPVMLASIRRADCVLFDFFETCLGTLEAVLQQPPARIPGRSHVLRQDASYFRRIAAIQYALNSDDGANAKILADADVIVVGVSRTGKTPVCVYLALQYGVLAANYPFTPEDMGAIQLPPLLQPLRKKLFGLTLNTSRLQSIREERYPGSHYASFAECQRELQWQNELYRQFDIPSINTTDVSIEEISASIVNRAHLERRQHGTLEHHHHHH,not soluble
22,MLRHHSCALLMLILVFVEVFATQSPTFDRQDRDYRPLQFGKRDGYRPLQFGKRDYRPLQFGKRSSGSSGPVVLEPIWEWQ,soluble
